Results: US20210238279A1 (Johns Hopkins, published 2021)
Positions count from the first letter of the chain named.

Experiments:
Assay in all cases: immunoblot of HEK293 lysates over-expressing FLAG-tagged ZnT homologs
[1] = target: T1, human ZnT2 with C-terminal FLAG tag (human, UniProt Q9BRI3 1-372, limits assumed)
T1 construct: Commercial HEK293 lysate (Origene), SDS-denatured on immunoblots; not shown: C-terminal FLAG octapeptide
T1 sequence (looked up): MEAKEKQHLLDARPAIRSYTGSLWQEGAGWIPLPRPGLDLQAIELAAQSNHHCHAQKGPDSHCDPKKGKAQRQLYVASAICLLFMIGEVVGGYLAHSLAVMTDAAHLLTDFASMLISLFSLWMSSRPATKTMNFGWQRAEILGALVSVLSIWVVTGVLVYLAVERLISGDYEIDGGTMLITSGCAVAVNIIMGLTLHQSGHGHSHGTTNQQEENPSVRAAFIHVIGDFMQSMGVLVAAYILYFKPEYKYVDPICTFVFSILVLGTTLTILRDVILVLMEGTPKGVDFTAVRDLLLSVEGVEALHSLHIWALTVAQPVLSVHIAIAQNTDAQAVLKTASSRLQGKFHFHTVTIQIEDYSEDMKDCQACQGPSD
Text: (§1) FIG. 7A-7D. mAb binding specificities (FIG. 7A) mAb binding to ZnT8-His immobilized to Ni-NTA plate. Bound mAb20 (red) or mAb39 (magenta) was detected by an HRP-conjugated secondary antibody. Solid lines are least-squares fits of binding datapoints to a one-component binding process. Error bars are standard errors (n=8). (FIG. 7B) SDS-denatured mouse ZnT8-His (labeled as M) and human ZnT8-His (labeled as H) on immunoblots were detected by mAb20 or mAb39 as indicated. […] (FIG. 7C) Detection of endogenous human ZnT8 in EndoC-βH cells by mAb20 or […] immunoblotting. An equal amount of EndoC-βH lysate (5 μg total protein) was loaded to each lane. (FIG. 7D) Immunoblotting of HEK lysates with or with over-expression of a ZnT homolog as indicated. An approximately equal amount of total lysate protein (5 μg) was located to each lane, probed by either mAb20, mAb39, or anti-FALG antibody as indicated. FIG. 8. HTRF response to human ZnT8, mouse ZnT8 and human ZnT3.
(§2) Immunoblotting. SDS-solubilized cell lysate of EndoC-β cells or HEK293 cells over-expressing ZnT8 was subjected to SDS-PAGE and probed with a 1:3000 mAb20 or mAb39, followed by 1:3000 anti-mouse HRP-conjugated secondary antibody (GE Healthcare cat. #NA931V). A duplicated gel was Coomassie-stained to show an equal protein loading for each lane ([…]). To compare the mAb20 or mAb39 reactivities to different ZnT homolog, we used commercial HEK293 lysates with lentivirus-mediated over-expression of ZnT1, ZnT2, ZnT3, ZnT4, ZnT7, ZnT8, ZnT10, each is tagged by a Flag tag at the C-terminus (Origene, catalog nos. LY500001, LC412033, LC423751, LC401170, LY415673, LC428544, LC406320, and LC412886). Approximately equal amounts of total protein (5 μg) was loaded to each lane, and then probed with mAb20, mAb39, or anti-FLAG antibody (Origene, catalog no. TA50011-100) as above. The expression levels of ZnT homologs varied with ZnT1 most abundantly expressed.

[2] = target: T2, human ZnT1 with C-terminal FLAG tag (human, UniProt Q9Y6M5 1-507)
T2 construct: Commercial HEK293 lysate (Origene), SDS-denatured on immunoblots; not shown: C-terminal FLAG octapeptide
T2 sequence (looked up): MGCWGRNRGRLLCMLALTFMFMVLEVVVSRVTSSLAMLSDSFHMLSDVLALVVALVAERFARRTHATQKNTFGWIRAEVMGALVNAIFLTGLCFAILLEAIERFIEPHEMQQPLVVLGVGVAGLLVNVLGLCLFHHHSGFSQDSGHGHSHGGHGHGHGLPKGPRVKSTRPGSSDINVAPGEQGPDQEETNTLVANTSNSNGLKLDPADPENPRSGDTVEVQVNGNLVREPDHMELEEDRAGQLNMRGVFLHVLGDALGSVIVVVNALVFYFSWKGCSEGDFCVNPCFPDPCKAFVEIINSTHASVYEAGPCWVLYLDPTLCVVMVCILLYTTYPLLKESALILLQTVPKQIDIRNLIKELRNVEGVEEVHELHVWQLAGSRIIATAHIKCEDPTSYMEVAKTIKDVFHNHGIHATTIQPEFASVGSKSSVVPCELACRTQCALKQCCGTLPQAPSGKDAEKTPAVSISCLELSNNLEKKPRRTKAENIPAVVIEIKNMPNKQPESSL
Text: as §1, §2

[3] = target: T3, human ZnT7 with C-terminal FLAG tag (human, UniProt Q8NEW0 1-376)
T3 construct: Commercial HEK293 lysate (Origene), SDS-denatured on immunoblots; not shown: C-terminal FLAG octapeptide
T3 sequence (looked up): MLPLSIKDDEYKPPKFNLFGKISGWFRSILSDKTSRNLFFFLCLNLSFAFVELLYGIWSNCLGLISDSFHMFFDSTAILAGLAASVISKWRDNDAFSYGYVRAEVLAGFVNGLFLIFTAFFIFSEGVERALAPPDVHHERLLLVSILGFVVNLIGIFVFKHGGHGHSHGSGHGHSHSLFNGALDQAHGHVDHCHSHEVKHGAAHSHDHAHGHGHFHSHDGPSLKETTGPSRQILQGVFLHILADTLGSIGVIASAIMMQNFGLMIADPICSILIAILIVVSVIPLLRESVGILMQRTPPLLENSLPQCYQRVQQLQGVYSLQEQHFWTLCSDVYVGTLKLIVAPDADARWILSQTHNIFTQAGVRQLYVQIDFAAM
Text: as §1, §2

[4] = target: T4, human ZnT4 with C-terminal FLAG tag (human, UniProt O14863 1-429)
T4 construct: Commercial HEK293 lysate (Origene), SDS-denatured on immunoblots; not shown: C-terminal FLAG octapeptide
T4 sequence (looked up): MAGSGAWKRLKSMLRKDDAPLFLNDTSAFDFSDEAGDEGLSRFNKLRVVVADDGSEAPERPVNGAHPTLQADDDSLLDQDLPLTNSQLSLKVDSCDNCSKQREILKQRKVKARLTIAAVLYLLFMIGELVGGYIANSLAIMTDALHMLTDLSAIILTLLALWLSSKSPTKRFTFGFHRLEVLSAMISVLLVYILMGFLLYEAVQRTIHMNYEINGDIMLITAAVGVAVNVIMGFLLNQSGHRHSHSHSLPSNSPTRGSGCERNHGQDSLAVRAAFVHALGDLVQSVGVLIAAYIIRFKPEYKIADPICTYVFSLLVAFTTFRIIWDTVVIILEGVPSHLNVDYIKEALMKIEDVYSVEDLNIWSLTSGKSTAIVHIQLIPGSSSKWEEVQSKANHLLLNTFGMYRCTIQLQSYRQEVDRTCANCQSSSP
Text: as §1, §2

Measured: binding result

B1: mAb20 (antibody, V domains shown)
VH: QIQLVQSGPELKKPGETVKISCKASGYIFTNYPMHWVKQAPGKGLKWMGWINTYSGVPTHADDFKGRFAFSLETSANSAFLQINNLKNEDTATYFCTRSRITPTGGYAMDYWGQGTSVTVSS
VL: DVVMTQTPLSLPVSLGDQASISCRSSQSLVHSNGNTYLHWYLQKPGQSPNLLISKVSNRFSGVPERFSGSGSGTDFTLKISRVEAEDLGVYFCSQNTHVPWTFGGGTKLEIKR
notes: Mouse hybridoma mAb purified on protein A/G; In some assays it was labelled with Alexa Fluor 488 or terbium cryptate; also called monoclonal antibody mAb20; anti-ZnT8 mAb20
no binding: all assays above

B2: mAb39 (antibody, V domains shown)
VH: QVQLQQPGAELVKPGASVKLSCKASGYSFTTYWMHWVKQRPGQGLEWVGDINPRNGRTNYNEKSKSKATLTVDISSSTVYMQVSSLTSEDSAVYYCAIWSGAMDYWGPGTSVTVSS
VL: B1 VL with A19P, R24K, S32N, N50K, S54Y, E65D, N96T, W101P
notes: Mouse hybridoma mAb purified on protein A/G; In some assays it was labelled with Alexa Fluor 555 or d2; also called monoclonal antibody mAb39; anti-ZnT8 mAb39
no binding: all assays above
